The results in this text go back to the RNAGym collection of RNA variant scans (doi:10.1093/molbev/msab373).

First the molecules themselves.
B1: Azoarcus group I ribozyme (parent)
chain: GUGCCUUGCGCCGGGAAACCACGCAAGGGAUGGUGUCAAAUUCGGCGAAACCUAAGCGCCCGCCCGGGCGUAUGGCAACGCCGAGCCAAGCUUCGGCGCCUGCGCCGAUGAAGGUGUAGAGACUAGACGGCACCCACCUAAGGCAAACGCUAUGGUGAAGGCAUAGUCCAGGGAGUGGCGAAAGUCACACAAACCGG

In the data set the parent is B1. Briefly: reverse-splicing fitness (ratio to wild type); higher = more active; in vitro selection; Mg2+ level not given. The procedure, abridged: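 An in vitro group I ribozyme library with randomized positions was T7-transcribed and gel-purified. In triplicate, 10 pmol RNA in EPPS pH 7.5 was reacted with 50 pmoles of a 30-nt RNA substrate for 1 h at 37 °C across several added MgCl2 levels (1–48 mM), then stopped with EDTA. Products were reverse transcribed from a substrate-complementary primer, PCR-amplified and sequenced (HiSeq 4000). Fitness is a variant's read proportion after selection over that before, normalised to wild type.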
For the variant GUGCCUUGCGCCGGGAAACCACGCAAGGGAUGGUGUCAAAUUCGGCGAAACCUAAGCGCCCGCCCGGGCGUAUGGCAACGCAGAGCCAAGCUUCGGCGCCUGCGCCGAUGGAGGUGUAGGGACUAGACGGCACCCACCUAAGGCAAACGCUAUGGUGAAGGCAUAGUCUAGGGAGUGGCGAAAGUCACACAAACCGG [C82A A111G A120G C169U], the reverse-splicing fitness came out at 0.0111. Regarding GUGCCUUGCGCCGGGAAACCACGCAAGGGAUGGUGUCAAAUUCGGCGAAACCUAAGCGCCCGCCCGGGCGUAUGGCAACGCAGAGCCAAGCUUCGGCGCCUGCGCCGAUGGAGGUGUAGGGACUAGACGGCACCCACCUAAGGCAAACGCUAUGGUGAAGGCAUAGUCCAGGGAGAGGCGAAAGUCACACAAACCGG [C82A A111G A120G U176A], the reverse-splicing fitness is 0.0146. For GUGCCUUGCGCCGGGAAACCACGCAAGGGAUGGUGUCAAAUUCGGCGAAACCUAAGCGCCCGCCCGGGCGUAUGGCAACGCAGAGCCAAGCUUCGGCGCCUGCGCCGAUGGAGGUGUAGGGACUAGACGGCACCCACCUAAGGCAAACGCUAUGGUGAAGGCAUAGUCCAGGGAGCGGCGAAAGUCACACAAACCGG [C82A A111G A120G U176C] the value was 0.0182; for GUGCCUUGCGCCGGGAAACCACGCAAGGGAUGGUGUCAAAUUCGGCGAAACCUAAGCGCCCGCCCGGGCGUAUGGCAACGCAGAGCCAAGCUUCGGCGCCUGCGCCGAUGGAGGUGUAGGGACUAGACGGCACCCACCUAAGGCAAACGCUAUGGUGAAGGCAUAGUCCAGGGAGGGGCGAAAGUCACACAAACCGG [C82A A111G A120G U176G], 0.00613. For GUGCCUUGCGCCGGGAAACCACGCAAGGGAUGGUGUCAAAUUCGGCGAAACCUAAGCGCCCGCCCGGGCGUAUGGCAACGCAGAGCCAAGCUUCGGCGCCUGCGCCGAUGGAGGUGUAGUGACUAGACGGCACCCACCUAAGGCCAACGAUAUGGUGAAGGCAUAGUCAAGGGAGGGGCGAAAGUCACACAAACCGG [C82A A111G A120U A145C C150A C169A U176G] the value was 0.00214; for GUGCCUUGCGCCGGGAAACCACGCAAGGGAUGGUGUCAAAUUCGGCGAAACCUAAGCGCCCGCCCGGGCGUAUGGCAACGCAGAGCCAAGCUUCGGCGCCUGCGCCGAUGGAGGUGUAGUGACUAGACGGCACCCACCUAAGGCCAACGAUAUGGUGAAGGCAUAGUCAAGGGAGAGGCGAAAGUCACACAAACCGG [C82A A111G A120U A145C C150A C169A U176A], 0.0022; for GUGCCUUGCGCCGGGAAACCACGCAAGGGAUGGUGUCAAAUUCGGCGAAACCUAAGCGCCCGCCCGGGCGUAUGGCAACGCAGAGCCAAGCUUCGGCGCCUGCGCCGAUGGAGGUGUAGUGACUAGACGGCACCCACCUAAGGCCAACGAUAUGGUGAAGGCAUAGUCAAGGGAGCGGCGAAAGUCACACAAACCGG [C82A A111G A120U A145C C150A C169A U176C], 0.0024. For GUGCCUUGCGCCGGGAAACCACGCAAGGGAUGGUGUCAAAUUCGGCGAAACCUAAGCGCCCGCCCGGGCGUAUGGCAACGCAGAGCCAAGCUUCGGCGCCUGCGCCGAUGGAGGUGUAGUGACUAGACGGCACCCACCUAAGGCCAACGGUAUGGUGAAGGCAUAGUCCAGGGAGUGGCGAAAGUCACACAAACCGG [C82A A111G A120U A145C C150G] the value was 0.00637; for GUGCCUUGCGCCGGGAAACCACGCAAGGGAUGGUGUCAAAUUCGGCGAAACCUAAGCGCCCGCCCGGGCGUAUGGCAACGCAGAGCCAAGCUUCGGCGCCUGCGCCGAUGGAGGUGUAGUGACUAGACGGCACCCACCUAAGGCCAACGAUAUGGUGAAGGCAUAGUCCAGGGAGUGGCGAAAGUCACACAAACCGG [C82A A111G A120U A145C C150A], 0.00468. Regarding GUGCCUUGCGCCGGGAAACCACGCAAGGGAUGGUGUCAAAUUCGGCGAAACCUAAGCGCCCGCCCGGGCGUAUGGCAACGCAGAGCCAAGCUUCGGCGCCUGCGCCGAUGGAGGUGUAGUGACUAGACGGCACCCACCUAAGGCCAACGAUAUGGUGAAGGCAUAGUCCAGGGAGAGGCGAAAGUCACACAAACCGG [C82A A111G A120U A145C C150A U176A], the reverse-splicing fitness was 0.003. In the case of GUGCCUUGCGCCGGGAAACCACGCAAGGGAUGGUGUCAAAUUCGGCGAAACCUAAGCGCCCGCCCGGGCGUAUGGCAACGCAGAGCCAAGCUUCGGCGCCUGCGCCGAUGGAGGUGUAGUGACUAGACGGCACCCACCUAAGGCCAACGAUAUGGUGAAGGCAUAGUCCAGGGAGCGGCGAAAGUCACACAAACCGG [C82A A111G A120U A145C C150A U176C], the reverse-splicing fitness came to 0.00355.

Regarding GUGCCUUGCGCCGGGAAACCACGCAAGGGAUGGUGUCAAAUUCGGCGAAACCUAAGCGCCCGCCCGGGCGUAUGGCAACGCAGAGCCAAGCUUCGGCGCCUGCGCCGAUGGAGGUGUAGUGACUAGACGGCACCCACCUAAGGCCAACGAUAUGGUGAAGGCAUAGUCCAGGGAGGGGCGAAAGUCACACAAACCGG [C82A A111G A120U A145C C150A U176G], the reverse-splicing fitness was found to be 0.00207. For GUGCCUUGCGCCGGGAAACCACGCAAGGGAUGGUGUCAAAUUCGGCGAAACCUAAGCGCCCGCCCGGGCGUAUGGCAACGCAGAGCCAAGCUUCGGCGCCUGCGCCGAUGGAGGUGUAGUGACUAGACGGCACCCACCUAAGGCAAACGCUAUGGUGAAGGCAUAGUCCAGGGAGUGGCGAAAGUCACACAAACCGG [C82A A111G A120U] the value was 0.0351; for GUGCCUUGCGCCGGGAAACCACGCAAGGGAUGGUGUCAAAUUCGGCGAAACCUAAGCGCCCGCCCGGGCGUAUGGCAACGCAGAGCCAAGCUUCGGCGCCUGCGCCGAUGGAGGUGUAGUGACUAGACGGCACCCACCUAAGGCCAACGAUAUGGUGAAGGCAUAGUCUAGGGAGAGGCGAAAGUCACACAAACCGG [C82A A111G A120U A145C C150A C169U U176A], 0.00351. For GUGCCUUGCGCCGGGAAACCACGCAAGGGAUGGUGUCAAAUUCGGCGAAACCUAAGCGCCCGCCCGGGCGUAUGGCAACGCAGAGCCAAGCUUCGGCGCCUGCGCCGAUGGAGGUGUAGUGACUAGACGGCACCCACCUAAGGCCAACGAUAUGGUGAAGGCAUAGUCUAGGGAGGGGCGAAAGUCACACAAACCGG [C82A A111G A120U A145C C150A C169U U176G] the value was 0.00212.
